Reference: patent US20120178682A1, “GB1 Peptidic Compounds and Methods for Making and Using the Same” (priority 2010, published 2012)
Positions count from the first letter of the chain named. Numbers in names are those of the source.

B1: E01-V31A: E01 point mutant V31A (protein)
chain: MKIEEHHHHHHHHHHGGSTYKLILNGKTLKGETTTEAVDVYDAFDVFFAYAASNFSDFDDWTYDDATKTFTVTEGGSDK
B2: E01-D27E: E01 point mutant D27E (protein)
chain: B1 chain with D45E, A49V
B3: E01-D39F: E01 point mutant D39F; scaffold for double mutants (protein)
chain: B1 chain with A49V, D57F
B4: E01-S38K: E01 point mutant S38K (protein)
chain: B1 chain with A49V, S56K
B5: E01-S35R: E01 point mutant S35R (protein)
chain: B1 chain with A49V, S53R
B6: E01-F40I: E01 point mutant F40I (protein)
chain: B1 chain with A49V, F58I
B7: E01-S35E: E01 point mutant S35E (protein)
chain: B1 chain with A49V, S53E
B8: E01-D41V: E01 point mutant D41V (protein)
chain: B1 chain with A49V, D59V
B9: E01-D24G: E01 point mutant D24G (protein)
chain: B1 chain with D42G, A49V
B10: E01-V22L: E01 point mutant V22L, His-tagged, expressed in E. coli (protein)
chain: B1 chain with V40L, A49V
B11: E01-S35G: E01 point mutant S35G (protein)
chain: B1 chain with A49V, S53G
B12: E01-A34S: E01 point mutant A34S (protein)
chain: B1 chain with A49V, A52S
B13: E01-S38G: E01 point mutant S38G (protein)
chain: B1 chain with A49V, S56G
B14: E01-D39F/S38G: E01 double mutant D39F/S38G (protein)
chain: B1 chain with A49V, S56G, D57F
B15: E01-D39F/V22L: E01 double mutant D39F/V22L (protein)
chain: B1 chain with V40L, A49V, D57F
B16: E01-D39F/S35R: E01 double mutant D39F/S35R (protein)
chain: B1 chain with A49V, S53R, D57F
B17: E01-D39F/D27E: E01 double mutant D39F/D27E (protein)
chain: B1 chain with D45E, A49V, D57F
B18: E01-D39F/F40I: E01 double mutant D39F/F40I (protein)
chain: B1 chain with A49V, D57F, F58I
B19: E01-D39F/S35G: E01 double mutant D39F/S35G (protein)
chain: B1 chain with A49V, S53G, D57F
B20: E01-D39F/A34S: E01 double mutant D39F/A34S (protein)
chain: B1 chain with A49V, A52S, D57F
B21: E01-D39F/S35E: E01 double mutant D39F/S35E (protein)
chain: B1 chain with A49V, S53E, D57F
B22: E01-D39F/V31A: E01 double mutant D39F/V31A (protein)
chain: B1 chain with D57F

What follows are molecules tested against D-VEGF (assay: SPR affinity measurements of GB1 peptidic compounds on immobilized D-VEGF). Details: Table 1; target D-VEGF.
Format: binding
Method: VEGF binding compounds were expressed. Binding affinities were measured using the […] SPR system. SPR analysis was performed on a ProteOn XPR36 Protein Interaction Array System (BioRad). Chemically synthesized L-VEGF, D-VEGF and VEGF165 (Peprotech) were immobilized in 50 mM Sodium Acetate (pH 5.5) to a non-dilute EDAC/sulfo-NHS activated GLC surface on separate channels using a flow rate of […] for 5 minutes in the vertical direction. Immobilization levels were monitored to ensure immobilization of approximately 500 response units of each protein. The domains were then stabilized with PBS for 30 seconds and 0.85% H3PO4 for 18 seconds each at […]. GB1 variants were diluted in PBS plus 0.05% Tween 20 at a starting concentration of 200 nM. The binders were further diluted with PBST 2-fold in series to produce 5 concentrations of variants. A PBST blank was also included. GB1 variant injection parameters were: […], 60 seconds contact time, and 600 seconds dissociation time, in the horizontal direction. VEGF proteins were regenerated with an injection of 0.85% H3PO4 at a flow rate of […] followed by a PBST wash of 30 seconds at […] flow rate.

| Molecule | Kd [nM] | Koff [s⁻¹] |
| --- | --- | --- |
| B1 | 7.8 | 0.00194 |
| B2 | 9.6 | 0.00333 |
| B3 | 4.23 | 0.00213 |
| B4 | 13.7 | 0.0028 |
| B5 | 9.3 | 0.00258 |
| B6 | 11.1 | 0.00441 |
| B7 | 7.47 | 0.00304 |
| B8 | 67.5 | 0.0333 |
| B9 | 14.9 | 0.00247 |
| B10 | 5.8 | 0.00239 |
| B11 | 8.79 | 0.00348 |
| B12 | 7.8 | 0.00278 |
| B13 | 9 | 0.00387 |

Same assay, conditions: Table 1; target D-VEGF; E01 point mutants expressed in E. coli

| Molecule | Kon [M⁻¹ s⁻¹] |
| --- | --- |
| B1 | 250000 |
| B2 | 347000 |
| B3 | 504000 |
| B4 | 204000 |
| B5 | 279000 |
| B6 | 398000 |
| B7 | 407000 |
| B8 | 493000 |
| B9 | 166000 |
| B10 | 411000 |
| B11 | 396000 |
| B12 | 356000 |
| B13 | 428000 |

Same assay, conditions: Table 2; GB1-E01 double mutants; target D-VEGF

| Molecule | Kd [nM] | Koff [s⁻¹] | Kon [M⁻¹ s⁻¹] |
| --- | --- | --- | --- |
| B14 | 2.83 | 0.00131 | 463000 |
| B3 | 3.48 | 0.00132 | 380000 |
| B15 | 1.14 | 0.00082 | 719000 |
| B16 | 5.35 | 0.00183 | 341000 |
| B17 | 3.1 | 0.00158 | 511000 |
| B18 | 2.29 | 0.00138 | 602000 |
| B19 | 5.4 | 0.00193 | 358000 |
| B20 | 4.49 | 0.00174 | 387000 |
| B21 | 4.52 | 0.00205 | 454000 |
| B22 | 2.99 | 0.00167 | 558000 |

Same assay, conditions: notes to Table 5; relative to E01

| Molecule | effect of point mutation on affinity |
| --- | --- |
| B3 | ^3 D39F point mutant increased affinity |
| B10 | ^2 V22L point mutant increased affinity; |
